Laboratory results as given in the RNAGym collection of RNA variant scans (doi:10.7554/elife.80360).

B1: CPEB3 Ribozyme (parent)
chain: GGGGGCCACAGCAGAAGCGUUCACGUCGCGGCCCCUGUCAGAUUCUGGUGAAUCUGCGAAUUCUGCUGU

Variants of: B1
Test: self-cleavage, relative activity (ratio to wild type); higher = more cleavage; co-transcriptional

| Variant | self-cleavage |
| --- | --- |
| GGGGGCCACAGCAGAAGCGUUCACGUCGCGGCCCCUGUCGGAUUGUGGUGAAUCUGCGAAUUCUGCUGU | 0.942 |
| GGGGGCCACAGCAGAAGCGUUCACGUCGCGGCCCCUGUCUGAUUCUGGUGAAGCUGCGAAUUCUGCUGU | 0.378 |
| GGGGGCCACAGCAGAAGCGUUCACGUCGCGGCCCCUGUCUGAUUCUGGUGAAACUGCGAAUUCUGCUGU | 0.302 |
| GGGGGCCACAGCAGAAGCGUUCACGUCGCGGCCCCUGUCAAAUUCUGGUGAAUAUGCGAAUUCUGCUGU | 0.904 |
| GGGGGCCACAGCAGAAGCGUUCACGUCGCGGCCCCUGUCUUAUUCUGGUGAAUCUGCGAAUUCUGCUGU | 0.664 |
| GGGGGCCACAGCAGAAGCGUUCACGUCGCGGCCCCUGUCUCAUUCUGGUGAAUCUGCGAAUUCUGCUGU | 0.592 |
| GGGGGCCACAGCAGAAGCGUUCACGUCGCGGCCCCUGUCUGAGUCUGGUGAAUCUGCGAAUUCUGCUGU | 0.299 |
| GGGGGCCACAGCAGAAGCGUUCACGUCGCGGCCCCUGUCGGAUUCUGGUGAAUCUGCGAAUGCUGCUGU | 0.858 |
| GGGGGCCACAGCAGAAGCGUUCACGUCGCGGCCCCUGUCGGAUUCUGGUGAAUCUGCGAAUACUGCUGU | 0.837 |
| GGGGGCCACAGCAGAAGCGUUCACGUCGCGGCCCCUGUCAAAUUCUGGUGAAUCUGCGAAUUCUGUUGU | 0.756 |
| GGGGGCCACAGCAGAAGCGUUCACGUCGCGGCCCCUGUCAAAUUCUGGUGAAUCUGCGAAUUCUGAUGU | 0.388 |
| GGGGGCCACAGCAGAAGCGUUCACGUCGCGGCCCCUGUCGGAUUCUGGUGAAUCUGAGAAUUCUGCUGU | 0.34 |
| GGGGGCCACAGCAGAAGCGUUCACGUCGCGGCCCCUGUCGGAUUCUGGUGAAUCUGUGAAUUCUGCUGU | 0.311 |
| GGGGGCCACAGCAGAAGCGUUCACGUCGCGGCCCCUGUCGGAUUCUGGUGAAUCUGCGAAUUCUGGUGU | 0.67 |
| GGGGGCCACAGCAGAAGCGUUCACGUCGCGGCCCCUGUCAAAUUCUUGUGAAUCUGCGAAUUCUGCUGU | 0.98 |
| GGGGGCCACAGCAGAAGCGUUCACGUCGCGGCCCCUGUCAAAUUCUAGUGAAUCUGCGAAUUCUGCUGU | 0.979 |
| GGGGGCCACAGCAGAAGCGUUCACGUCGCGGCCCCUGUCGGAUUCUGGUGAGUCUGCGAAUUCUGCUGU | 0.903 |
| GGGGGCCACAGCAGAAGCGUUCACGUCGCGGCCCCUGUCGGAUUCUGGUGACUCUGCGAAUUCUGCUGU | 0.87 |
| GGGGGCCACAGCAGAAGCGUUCACGUCGCGGCCCCUGUCGGAUUCUGGUGAUUCUGCGAAUUCUGCUGU | 0.851 |
| GGGGGCCACAGCAGAAGCGUUCACGUCGCGGCCCCUGUCGGAUUCUCGUGAAUCUGCGAAUUCUGCUGU | 1 |
| GGGGGCCACAGCAGAAGCGUUCACGUCGCGGCCCCUGUCUGAUUCUGGUGAAUCUGCGAAAUCUGCUGU | 0.5 |
| GGGGGCCACAGCAGAAGCGUUCACGUCGCGGCCCCUGUCUGAUUCUGGUGAAUCUGCGAACUCUGCUGU | 0.258 |
| GGGGGCCACAGCAGAAGCGUUCACGUCGCGGCCCCUGUCAAAUUCUGGUGAAUCUGCGAAUUCUGCUGU | 0.906 |
| GGGGGCCACAGCAGAAGCGUUCACGUCGCGGCCCCUGUCGGAUUCUGGUGGAUCUGCGAAUUCUGCUGU | 0.979 |
| GGGGGCCACAGCAGAAGCGUUCACGUCGCGGCCCCUGUCGGAUUCUGGUGAAUCUGCGUAUUCUGCUGU | 0.691 |
| GGGGGCCACAGCAGAAGCGUUCACGUCGCGGCCCCUGUCAAAUUCUGUUGAAUCUGCGAAUUCUGCUGU | 0.987 |

| Variant | self-cleavage |
| --- | --- |
| GGGGGCCACAGCAGAAGCGUUCACGUCGCGGCCCCUGUCAAAUUCUGCUGAAUCUGCGAAUUCUGCUGU | 0.876 |
| GGGGGCCACAGCAGAAGCGUUCACGUCGCGGCCCCUGUCCGAUUCUGGUGAAUCUGCGAAUUCUGCUGG | 0.875 |
| GGGGGCCACAGCAGAAGCGUUCACGUCGCGGCCCCUGUCAAAUUGUGGUGAAUCUGCGAAUUCUGCUGU | 0.537 |
| GGGGGCCACAGCAGAAGCGUUCACGUCGCGGCCCCUGUCAAAUUAUGGUGAAUCUGCGAAUUCUGCUGU | 0.37 |
| GGGGGCCACAGCAGAAGCGUUCACGUCGCGGCCCCUGUCGGCUUCUGGUGAAUCUGCGAAUUCUGCUGU | 0.81 |
| GGGGGCCACAGCAGAAGCGUUCACGUCGCGGCCCCUGUCGGAUACUGGUGAAUCUGCGAAUUCUGCUGU | 0.907 |
| GGGGGCCACAGCAGAAGCGUUCACGUCGCGGCCCCUGUCGGAUUCUGGUGAAUCUGCGAAUUCGGCUGU | 0.796 |
| GGGGGCCACAGCAGAAGCGUUCACGUCGCGGCCCCUGUCGGAUUCUGGUGAAUCUGCGAAUUCCGCUGU | 0.737 |
| GGGGGCCACAGCAGAAGCGUUCACGUCGCGGCCCCUGUCUGAUUCUGGUUAAUCUGCGAAUUCUGCUGU | 0.749 |
| GGGGGCCACAGCAGAAGCGUUCACGUCGCGGCCCCUGUCUGAUUCUGGUGACUCUGCGAAUUCUGCUGU | 0.561 |
| GGGGGCCACAGCAGAAGCGUUCACGUCGCGGCCCCUGUCUGAUUCUGGUGAUUCUGCGAAUUCUGCUGU | 0.477 |
| GGGGGCCACAGCAGAAGCGUUCACGUCGCGGCCCCUGUCUGAUUCUGGUGAAUCUUCGAAUUCUGCUGU | 0.552 |
| GGGGGCCACAGCAGAAGCGUUCACGUCGCGGCCCCUGUCUGAUUCUGGUGAAUCUCCGAAUUCUGCUGU | 0.475 |
| GGGGGCCACAGCAGAAGCGUUCACGUCGCGGCCCCUGUCUGAUUCUGAUGAAUCUGCGAAUUCUGCUGU | 0.977 |
| GGGGGCCACAGCAGAAGCGUUCACGUCGCGGCCCCUGUCUGAUUCUGGUGAAUCUGCGCAUUCUGCUGU | 0.285 |
| GGGGGCCACAGCAGAAGCGUUCACGUCGCGGCCCCUGUCGGAUUCUGGUGAAUAUGCGAAUUCUGCUGU | 0.701 |
| GGGGGCCACAGCAGAAGCGUUCACGUCGCGGCCCCUGUCGGAUUCUGGUGAAUGUGCGAAUUCUGCUGU | 0.656 |
| GGGGGCCACAGCAGAAGCGUUCACGUCGCGGCCCCUGUCGGAUUCUGGUGAAUCAGCGAAUUCUGCUGU | 0.858 |
| GGGGGCCACAGCAGAAGCGUUCACGUCGCGGCCCCUGUCGGAUUCUGGUGAAUCCGCGAAUUCUGCUGU | 1 |
| GGGGGCCACAGCAGAAGCGUUCACGUCGCGGCCCCUGUCGGAUUCUGGUGAAUCGGCGAAUUCUGCUGU | 0.757 |
| GGGGGCCACAGCAGAAGCGUUCACGUCGCGGCCCCUGUCUGAUUCUGGUGAAUCUGCGAGUUCUGCUGU | 0.47 |
| GGGGGCCACAGCAGAAGCGUUCACGUCGCGGCCCCUGUCUGAUUCUGGUGAAUCUGUGAAUUCUGCUGU | 0.302 |
| GGGGGCCACAGCAGAAGCGUUCACGUCGCGGCCCCUGUCUGAUUCUGGUGAAUCUGAGAAUUCUGCUGU | 0.333 |
| GGGGGCCACAGCAGAAGCGUUCACGUCGCGGCCCCUGUCGGAUUCUGGUGAAUCUGCGAAUUCUGCAGU | 0.941 |
| GGGGGCCACAGCAGAAGCGUUCACGUCGCGGCCCCUGUCUGAUUCUGGUGAAUCUGCAAAUUCUGCUGU | 0.797 |
| GGGGGCCACAGCAGAAGCGUUCACGUCGCGGCCCCUGUCUGAUUCUGGUGAAUCUGCUAAUUCUGCUGU | 0.931 |

| Variant | self-cleavage |
| --- | --- |
| GGGGGCCACAGCAGAAGCGUUCACGUCGCGGCCCCUGUCUGAUUCUGGUGAAUCUGCCAAUUCUGCUGU | 0.881 |
| GGGGGCCACAGCAGAAGCGUUCACGUCGCGGCCCCUGUCAAAUUCUGGUGACUCUGCGAAUUCUGCUGU | 0.388 |
| GGGGGCCACAGCAGAAGCGUUCACGUCGCGGCCCCUGUCGGAUUCUGGUGAAUCUGCGAAUUCUGCUGU | 0.97 |
| GGGGGCCACAGCAGAAGCGUUCACGUCGCGGCCCCUGUCUGAUUCUGGUGAAUCUGCGAAUUCUGCUGU | 0.901 |
| GGGGGCCACAGCAGAAGCGUUCACGUCGCGGCCCCUGUCGGAUUCUGGUGAAUCUGCGAAUUCUGCUUU | 0.987 |
| GGGGGCCACAGCAGAAGCGUUCACGUCGCGGCCCCUGUCGGAUUCUGGUGAAUCUCCGAAUUCUGCUGU | 0.779 |
| GGGGGCCACAGCAGAAGCGUUCACGUCGCGGCCCCUGUCAAAUUCUGGUUAAUCUGCGAAUUCUGCUGU | 0.686 |
| GGGGGCCACAGCAGAAGCGUUCACGUCGCGGCCCCUGUCAAAUUCUGGUCAAUCUGCGAAUUCUGCUGU | 0.453 |
| GGGGGCCACAGCAGAAGCGUUCACGUCGCGGCCCCUGUCAAAUUCUGGUGAAUCUACGAAUUCUGCUGU | 0.77 |
| GGGGGCCACAGCAGAAGCGUUCACGUCGCGGCCCCUGUCAAAUUCUGGUGAAUCUGCGUAUUCUGCUGU | 0.332 |
| GGGGGCCACAGCAGAAGCGUUCACGUCGCGGCCCCUGUCAAAUUCUGGUGAAUCUGCGGAUUCUGCUGU | 0.774 |
| GGGGGCCACAGCAGAAGCGUUCACGUCGCGGCCCCUGUCAAAUUCUGGUGAAUCUGCAAAUUCUGCUGU | 0.906 |
| GGGGGCCACAGCAGAAGCGUUCACGUCGCGGCCCCUGUCAAAUUCUGGUGAAUCUGCCAAUUCUGCUGU | 0.86 |
| GGGGGCCACAGCAGAAGCGUUCACGUCGCGGCCCCUGUCAAAUUCUGGUGAAUCUGCUAAUUCUGCUGU | 0.921 |
| GGGGGCCACAGCAGAAGCGUUCACGUCGCGGCCCCUGUCAAAUUCUGGUGGAUCUGCGAAUUCUGCUGU | 0.797 |
| GGGGGCCACAGCAGAAGCGUUCACGUCGCGGCCCCUGUCAAAUUCUGGUGCAUCUGCGAAUUCUGCUGU | 0.483 |
| GGGGGCCACAGCAGAAGCGUUCACGUCGCGGCCCCUGUCAAAUUCUGGUGAAUCUGCGAGUUCUGCUGU | 0.464 |
| GGGGGCCACAGCAGAAGCGUUCACGUCGCGGCCCCUGUCUGAUUCUUGUGAAUCUGCGAAUUCUGCUGU | 0.912 |
| GGGGGCCACAGCAGAAGCGUUCACGUCGCGGCCCCUGUCUGAUUCUAGUGAAUCUGCGAAUUCUGCUGU | 0.885 |
| GGGGGCCACAGCAGAAGCGUUCACGUCGCGGCCCCUGUCUGAUACUGGUGAAUCUGCGAAUUCUGCUGU | 0.609 |
| GGGGGCCACAGCAGAAGCGUUCACGUCGCGGCCCCUGUCUGAUUCUGGUGAAUAUGCGAAUUCUGCUGU | 0.435 |
| GGGGGCCACAGCAGAAGCGUUCACGUCGCGGCCCCUGUCAAAUUCUGGUGAAUCUGCGAAUUAUGCUGU | 0.329 |
| GGGGGCCACAGCAGAAGCGUUCACGUCGCGGCCCCUGUCGGAUUCUGGUGAAUCUGCGAAUUCUUCUGU | 0.519 |
| GGGGGCCACAGCAGAAGCGUUCACGUCGCGGCCCCUGUCAAUUUCUGGUGAAUCUGCGAAUUCUGCUGU | 0.49 |
| GGGGGCCACAGCAGAAGCGUUCACGUCGCGGCCCCUGUCUGAUUCUGGUGAAUCUGCGAAUUAUGCUGU | 0.364 |
| GGGGGCCACAGCAGAAGCGUUCACGUCGCGGCCCCUGUCUGAUUCUGGUGAAUCUGCGAAUUCCGCUGU | 0.388 |
